US5985836A, “Alpha-1 proteinase inhibitor binding peptides” (Bayer Corporation, priority 1998, dated 1999)
Ends that are not written are not given here.

What was measured:
[1] = biological target: T1, apolipoprotein alpha-1 (Apo A-1) (Homo sapiens, UniProt P02647); assay: Purification from Effluent II+III, Apo A-1 mass balance; assay type: binding; conditions: 1 ml Eff. II+III, 4° C.
T1 construct: Eff; II+III is a process intermediate in the Cohn plasma fractionation process; tissue Bayer Corporation (Clayton, N.C.); host or cells: plasma fraction: Cohn Effluent II+III
Outline: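 Mass balance per protein was determined over the load and each step eluate (1M NaCl, 3M NaCl, 2% acetic acid) of peptide columns challenged with 1 ml Effluent II+III. The feed contained 20% ethanol and 20-25 mg/ml hSA, the flow was 865 μl/min after a 10 min residence, and the temperature was 4° C.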

[2] = biological target: T2, A1PI (Homo sapiens, UniProt P01009); assay: A1PI binding on peptide-resin column, injection of 1 mg A1PI in equilibration buffer; conditions: 1 mg A1PI in equilibration buffer
T2 construct: Human plasma is currently the only approved source of therapeutic AlPI
Outline: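 Peptides synthesized on A-Totda-Toyopearl chelate resin (0.1 mmole/g) packed in 0.4×5 cm columns; 1 mg A1PI injected in equilibration buffer at 4 °C or 20 °C, 865 or 523 μl/min. Flowthrough, 1M/3M NaCl washes and 2% acetic acid eluate quantified by A280 or immunonephelometry as percent of total eluted.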

[3] = biological target: T2, A1PI; assay: Purification of A1PI from Effluent II+III on peptide column, A1PI mass balance; assay type: binding; conditions: A1PI, 1 ml Eff. II+III, 4° C.
Outline: (§1)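 Peptide-ligand columns were loaded with 1 ml Cohn Effluent II+III (20% v/v ethanol, 20-25 mg/ml hSA, ~1 mg/ml A1PI, other plasma proteins at 0.1-1 mg/ml) using a 10 min residence time at 4° C. Step elutions at 865 μl/min used 1M NaCl, 3M NaCl, then 2% acetic acid, and protein mass balances were tracked across fractions.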

[4] = biological target: T2, A1PI; assay: Capture and elution of active A1PI with 2M urea buffer (elastase inhibition activity assay and immunonephelometry); assay type: binding; conditions: 4° C.
[5] = test system: Immunoglobulin A (IgA); assay: Purification from Effluent II+III, IgA mass balance; assay type: binding, human; conditions: 1 ml Eff. II+III, 4° C.
Outline: as §1

[6] = test system: haptoglobin (Hpt); assay: Purification from Effluent II+III, haptoglobin mass balance; assay type: binding, human; conditions: 1 ml Eff. II+III, 4° C.
Description: Sequences 1-11 and 15 were assayed with Effluent II+III (Eff. II+III). Eff. II+III is a process intermediate in the Cohn plasma fractionation process. The feed stream contains 20% (by volume) ethanol, 20-25 mg/ml hSA and approximately 1 mg/ml AlPI. The stream also contains other proteins including anti-thrombin III (AT3), immunoglobin G (IgG), immunoglobin A (IgA), apolipoprotein alpha-1 (Apo A-1), transferrin (Trf), haptoglobin (Hpt), and alpha-1 acid glycoprotein (AAG) at concentrations ranging from 0.1-1 mg/ml.
The columns were assayed using the same technique as the hSA+AlPI experiments, allowing for a 10 minute residence time followed by a constant flow rate of 865 μl/min with step elutions of 1M NaCl, 3M NaCl, and 2% acetic acid. All experiments were conducted at 4° C. The mass balances for the injection of 1 ml Eff. […] The AlPI was enriched from 3% of the total protein in the feed to upwards of 50% in the acid eluate.

[7] = biological target: T2, A1PI; assay: A1PI purification from 5 mg hSA + 1 mg A1PI on peptide column, A1PI mass balance; assay type: binding; conditions: A1PI, 5 mg hSA + 1 mg A1PI; for Percent Eluted by Fraction, 1M NaCl / Percent Eluted by Fraction, 2% Ac. Acid / Percent Eluted by Fraction, 3M NaCl / Percent Eluted by Fraction, Flow: relative to total eluted
Outline: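 Peptides on A-Totda-Toyopearl resin (0.1 mmole/g) in 0.4×5 cm columns; 5 mg hSA + 1 mg A1PI loaded at 4 °C or 20 °C with 10 min residence (17 μl/min). Steps of 1M and 3M NaCl, then 2% acetic acid; fractions quantified by immunonephelometry for mass balance.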

[8] = test system: Immunoglobulin G (IgG); assay: Purification from Effluent II+III, IgG mass balance; assay type: binding, human; conditions: 1 ml Eff. II+III, 4° C.
Outline: as §1

[9] = * as in Tables 4, 5 (below detection limit)
[10] = 20° C., * Below detection limit

T2 sequence (P01009 25-418): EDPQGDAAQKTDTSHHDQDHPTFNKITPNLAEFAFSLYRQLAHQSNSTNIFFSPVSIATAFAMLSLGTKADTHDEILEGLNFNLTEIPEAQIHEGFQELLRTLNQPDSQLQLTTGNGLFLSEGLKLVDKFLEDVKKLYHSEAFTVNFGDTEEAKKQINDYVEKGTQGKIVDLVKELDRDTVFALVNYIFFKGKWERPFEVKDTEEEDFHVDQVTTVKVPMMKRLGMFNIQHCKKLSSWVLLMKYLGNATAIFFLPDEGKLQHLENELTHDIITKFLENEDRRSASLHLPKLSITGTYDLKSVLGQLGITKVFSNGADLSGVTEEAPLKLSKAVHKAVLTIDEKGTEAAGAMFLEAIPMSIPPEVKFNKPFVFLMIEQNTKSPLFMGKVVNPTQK
T1 sequence (P02647 19-267): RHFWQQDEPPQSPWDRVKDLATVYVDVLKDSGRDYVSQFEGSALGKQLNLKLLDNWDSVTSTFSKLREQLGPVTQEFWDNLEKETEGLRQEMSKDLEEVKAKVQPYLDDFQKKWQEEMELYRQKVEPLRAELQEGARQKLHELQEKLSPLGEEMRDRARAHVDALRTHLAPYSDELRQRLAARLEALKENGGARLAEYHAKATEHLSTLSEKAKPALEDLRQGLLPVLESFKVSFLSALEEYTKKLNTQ

For LIVHRW, the “Percent Eluted by Fraction, 1M NaCl” value [1] was 0%, the “Percent Eluted by Fraction, 2% Acetic Acid” value [1] was 51% and the “Percent Eluted by Fraction, 3M NaCl” value [1] was 0%. For the same substance, the “Percent Eluted by Fraction, Flow” value [1] was 49%, the “Mass Protein per Eluate Fraction, 2% Acetic Acid” value [1, 9] was 0.30 mg and the “Mass Protein per Eluate Fraction, Flow” value [1, 9] was 0.28 mg. For the same substance, the “Percent A1PI Eluted by Fraction Based on Absorbance at 280 nm, 1M NaCl” value ([2]; 4° C.) was 74%, the “Percent A1PI Eluted by Fraction Based on Absorbance at 280 nm, 2% Acetic Acid” value ([2]; 4° C.) was 26% and the “Percent A1PI Eluted by Fraction Based on Absorbance at 280 nm, Flowthrough” value ([2]; 4° C.) was 0%. For the same substance, the “Percent A1PI Eluted by Fraction, 1M NaCl” value ([2]; 20° C.) was 64%, the “Percent A1PI Eluted by Fraction, 2% Acetic Acid” value ([2]; 20° C.) was 36% and the “Percent A1PI Eluted by Fraction, Flowthrough” value ([2]; 20° C.) was 0%. For the same substance, the “Percent Eluted by Fraction, 1M NaCl” value [3] was 16%, the “Percent Eluted by Fraction, 2% Acetic Acid” value [3] was 25% and the “Percent Eluted by Fraction, 3M NaCl” value [3] was 0%. For the same substance, the “Percent Eluted by Fraction, Flow” value [3] was 59%, the “Mass Protein per Eluate Fraction, 1M NaCl” value [3, 9] was 0.20 mg and the “Mass Protein per Eluate Fraction, 2% Acetic Acid” value [3, 9] was 0.30 mg. The “Mass Protein per Eluate Fraction, Flow” value [3, 9] was 0.71 mg, the “Mass A1PI in Urea Eluate (mg), Activity” value ([4]; 1 mg A1PI, eluted with 2M urea, pH 6, elastase inhibition activity assay) was 0.75 mg and the “Mass A1PI in Urea Eluate (mg), Nephelometry” value ([4]; 1 mg A1PI, eluted with 2M urea, pH 6, immunonephelometry) was 0.85 mg. The “Specific Activity” value ([4]; mass of A1PI by activity assay relative to immunonephelometry, urea eluate) was 0.88 mg/mg, the “Percent Eluted by Fraction, 1M NaCl” value [5] was 43% and the “Percent Eluted by Fraction, 2% Acetic Acid” value [5] was 20%. For the same substance, the “Percent Eluted by Fraction, 3M NaCl” value [5] was 0%, the “Percent Eluted by Fraction, Flow” value [5] was 37% and the “Mass Protein per Eluate Fraction, 1M NaCl” value [5, 9] was 0.18 mg. For the same substance, the “Mass Protein per Eluate Fraction, 2% Acetic Acid” value [5, 9] was 0.08 mg, the “Mass Protein per Eluate Fraction, Flow” value [5, 9] was 0.15 mg and the “Percent Eluted by Fraction, 1M NaCl” value [6] was 40%. The “Percent Eluted by Fraction, 2% Acetic Acid” value [6] was 0%, the “Percent Eluted by Fraction, 3M NaCl” value [6] was 0% and the “Percent Eluted by Fraction, Flow” value [6] was 60%. For the same substance, the “Mass Protein per Eluate Fraction, 1M NaCl” value [6, 9] was 0.29 mg, the “Mass Protein per Eluate Fraction, Flow” value [6, 9] was 0.43 mg and the “Mass Protein per Eluate Fraction, 1M NaCl” value ([7]; 4° C., * Below detection limit) was 0.40 mg. For the same substance, the “Mass Protein per Eluate Fraction, 2% Ac. Acid” value ([7]; 4° C., * Below detection limit) was 0.24 mg, the “Percent Eluted by Fraction, 1M NaCl” value ([7]; 4° C.) was 62% and the “Percent Eluted by Fraction, 2% Ac. Acid” value ([7]; 4° C.) was 38%. For the same substance, the “Percent Eluted by Fraction, 3M NaCl” value ([7]; 4° C.) was 0%, the “Percent Eluted by Fraction, Flow” value ([7]; 4° C.) was 0% and the “Mass Protein per Eluate Fraction, 1M NaCl” value [7, 10] was 0.15 mg. For the same substance, the “Mass Protein per Eluate Fraction, 2% Ac. Acid” value [7, 10] was 0.37 mg, the “Mass Protein per Eluate Fraction, Flow” value [7, 10] was 0.34 mg and the “Percent Eluted by Fraction, 1M NaCl” value ([7]; 20° C.) was 18%. For the same substance, the “Percent Eluted by Fraction, 2% Ac. Acid” value ([7]; 20° C.) was 43%, the “Percent Eluted by Fraction, 3M NaCl” value ([7]; 20° C.) was 0% and the “Percent Eluted by Fraction, Flow” value ([7]; 20° C.) was 39%. The “Percent Eluted by Fraction, 1M NaCl” value [8] was 0%, the “Percent Eluted by Fraction, 2% Acetic Acid” value [8] was 0% and the “Percent Eluted by Fraction, 3M NaCl” value [8] was 0%. The “Percent Eluted by Fraction, Flow” value [8] was 100% and the “Mass Protein per Eluate Fraction, Flow” value [8, 9] was 0.31 mg.
